Experimental data: the RNAGym collection of RNA variant scans (doi:10.7554/elife.80360)

B1: HDV Ribozyme (parent)
chain: GGCCGGCAUGGUCCCAGCCUCCUCGCUGGCGCCGGCUGGGCAACAUUCCGAGGGGACCGUCCCCUCGGUAAUGGCGAAUGGGACCCA

Variants of: B1
Experiment: self-cleavage, relative activity (ratio to wild type); higher = more cleavage; co-transcriptional

Variant | self-cleavage
A42U C85U | 0.541
A43U A87C | 0.314
A43U A87G | 0.274
A42G A77G | 0.208
A42G A78U | 0.162
A42U U60A | 0.665
C44A | 0.764
A42U U65C | 0.657
A43C C75A | 0.298
A43C C75G | 0.314
A43C C75U | 0.172
A43C A51G | 0.499
A43C A51U | 0.324
A43C A51C | 0.604
A42U C58U | 0.271
A42U C58G | 0.443
A42U C58A | 0.481
A43G C66A | 0.554
A42G C85U | 0.767
A42G C85A | 0.745
A43G G68A | 0.665
A43G G68C | 0.253
A43C G82U | 0.0545
A43C G82A | 0.185

Variant | self-cleavage
A42G A43C | 0.158
A42G A43U | 0.185
A42G A43G | 0
A43G A70U | 0.743
A43G A70C | 0.9
A42U G50U | 0.727
A42U G50C | 0.285
A42G G52A | 0.483
A43U A71U | 0.565
A43U A71C | 0.543
A42U A45G | 0.237
A42U A45C | 0.361
A42U G54A | 0.441
A42U G54C | 0.381
A43C A78C | 0.0723
A43C A78G | 0.0978
A43G A51U | 0.646
A43G A51C | 0.745
A43C U60C | 0.532
A42G U79A | 0.573
A42G G54A | 0.567
A42G G54C | 0.614
A42U C75U | 0.0665
A42U C75G | 0.125

Variant | self-cleavage
A42G | 0.562
A42U | 0.529
A43G C48A | 0.81
A43G G73A | 0.219
A42G C62U | 0.808
A42G C62A | 0.35
A43G G81A | 0.0941
A43C G59C | 0.322
A43C G59U | 0.639
A43C G67A | 0.322
A42G G73U | 0.147
A42G G73A | 0.192
A42G U65A | 0.703
A42G U65G | 0.536
A43C G55U | 0.748
A43C A71G | 0.762
A43U G76U | 0.307
A43U G76C | 0.181
A43C C64A | 0.38
A43C C64U | 0.391
A43U U72A | 0.194
A43U U72G | 0.256
A42U C61G | 0.77
A42U C61A | 0.47

Variant | self-cleavage
A42U C61U | 0.445
A43U C64A | 0.397
A42U G68C | 0.397
A42U G68U | 0.162
A42U G68A | 0.407
A42G A56C | 0.54
A42G A56U | 0.698
A42G A56G | 0.516
A42U C57G | 0.489
A42U C57U | 0.428
A43C G68C | 0.283
A43U G50C | 0.492
A42G G81A | 0.106
A42G G81C | 0.0386
A43G A71G | 0.68
A43C G50U | 0.432
A43C G54C | 0.403
A42G C49G | 0.358
A42G C49U | 0.489
A42G C49A | 0.302
A43G G52U | 0.742
A42U G73C | 0.267
A43G G67U | 0.527
A43G G67A | 0.804

Variant | self-cleavage
A42G A87U | 0.479
A42G A87C | 0.521
A43C | 0.498
A43G | 0.618
A43U | 0.546
A43G C44A | 0.684
A43G C49G | 0.344
A43U C48U | 0.608
A42G U46G | 0.0875
A43G U60G | 0.755
A43G U60A | 0.594
A43C U46G | 0.415
A43G C84U | 0.426
A42G C84G | 0.314
A42G G76C | 0.672
A42G G76U | 0.782
A43U C75A | 0.0755
A43U C75U | 0.128
A43C G80A | 0.124
A42U A70C | 0.636
A42U A70G | 0.571
A42G A83U | 0.185
A42G A83C | 0.119
A43G C63U | 0.615

Variant | self-cleavage
A43U G74U | 0.684
A43U G74A | 0.261
A42U A78G | 0.264
A43U C61G | 0.528
A42G C44G | 0
A42G C66U | 0.591
A43U G67C | 0.354
A43U G67U | 0.499
A43U G67A | 0.237
A42U U46G | 0.287
A42U U46C | 0.45
A43U C84G | 0.146
A42G C57U | 0.527
A42G G82U | 0.0504
A42G G82C | 0.0396
A43U U69G | 0.199
A43U U69A | 0.449
A43C G81U | 0
A43C G81C | 0.0773
A43U A83G | 0.0986
A42U G55C | 0.87
A43G G74C | 0.0791
A43G G74U | 0.243
A43U C57A | 0.69

Variant | self-cleavage
A43U G54C | 0.196
A43U G54U | 0.432
A42U G52C | 0.799
A42U G52A | 0.612
A42U G52U | 0.592
A43G C61A | 0.499
A43G C61U | 0.739
A42C U60G | 0.269
A43G G82C | 0.131
A43C C86G | 0.399
A43C C86A | 0.443
A42G U60G | 0.639
A42G U60C | 0.617
A42G U60A | 0.302
A43C G52C | 0.386
A43C G52U | 0.402
A43C G52A | 0.511
A43G G54A | 0.378
A43G A77C | 0.0723
A43G A77G | 0.332
A43G C64G | 0.644
A43G C64U | 0.657
A43C A70G | 0.643
A42U G59U | 0.595

Variant | self-cleavage
A42U G59C | 0.422
A42U G59A | 0.845
A43U U46C | 0.383
A43U U46G | 0.185
A42U C86U | 0.58
A42U G74U | 0.277
A42U C44A | 0.688
A43C C85A | 0.361
A43C C85U | 0.475
A43C C85G | 0.519
A42G A51U | 0.464
A42G A51C | 0.831
A42C U72G | 0.256
C44A A51C | 0.779
A43U A77G | 0.277
A43U A77U | 0.151
A43U U60G | 0.394
A43U U60C | 0.678
A43C A87C | 0.407
A43C A87G | 0.306
A42U C64A | 0.639
C44A A45U | 0.95
C44A A45G | 1.01
A42U C66U | 0.61

Variant | self-cleavage
A42U C66A | 0.511
A42U C66G | 0.386
A43G U72G | 0.554
A42G A45U | 0.598
A42G A45G | 0.383
A43G U47A | 0.383
A43U G81U | 0.16
A43U G81A | 0.148
A42U A51U | 0.509
A42U A51G | 0.508
A43C C62G | 0.322
A43C C62A | 0.415
A43C C62U | 0.508
A43G G80A | 0.115
A43G G80U | 0.0916
A43U C44U | 1.07
A43U C44G | 0.739
A42G G59C | 0.703
A42U A87U | 0.56
A43G G59U | 0.601
A43G G59C | 0.637
A43U A51G | 0.911
A43U A51U | 0.332
A43U A51C | 0.525

Variant | self-cleavage
A43U C58G | 0.7
A43U C58A | 0.614
A43U A56U | 0.475
A43U A56C | 0.374
A43U U47C | 0.554
A43U U47A | 0.271
A43G G55A | 0.566
A43C G73U | 0.604
A43C U47C | 0.208
A43C U47G | 0.302
A43G U46A | 0.782
A42U G53C | 0.437
A42U G53U | 0.698
A43U G80U | 0.173
A43U G80A | 0.0237
A43U G80C | 0.115
A42U G82C | 0.264
A42U G82U | 0.102
A43G A83G | 0.215
A43C A83C | 0.332
A43C A83U | 0.161
A43C A83G | 0.0923
A43U U65A | 0.584
A43U U65C | 0.298

Variant | self-cleavage
A43U A45G | 0.57
A43G U65C | 0.522
A42G C75G | 0
A42C U79G | 0.151
A43G G53U | 0.577
A43G G53C | 0.554
A42C U69A | 0.156
A42G G74U | 0.0791
A42G G74C | 0.095
A42G G80A | 0.0997
A42G A71U | 0.502
A43G U79C | 0.0941
A43G U79G | 0.199
A43C A56G | 0.404
A43G A78C | 0.0415
A43G A78U | 0.178
A43G C86U | 0.739
A43U C63U | 0.554
A43C C48G | 0.449
A43C C48U | 0.619
A42U C48A | 0.485
A42U C48U | 0.506
A43G A45C | 0.0504
A43G A45U | 0.584

Variant | self-cleavage
A43C C49U | 0.684
A43C C49A | 0.172
A42U G80C | 0.166
A42U G80U | 0.138
A42G G55U | 0.354
A43C C58U | 0.671
A43C C58G | 0.443
A43C C63G | 0.185
A43U C86A | 0.554
A42U A77C | 0.0519
A43C A45C | 0.415
A43C A45G | 0.643
A42U C62G | 0.6
A42U C62A | 0.618
A43U G68C | 0.198
A43U G68A | 0.408
A43C G74U | 0.415
A43C G74C | 0.0811
A43C G74A | 0.509
A43C C66G | 0.364
A43C C66U | 0.306
A43C C66A | 0.302
A43U G53U | 0.492
A43U G53A | 0.407

Variant | self-cleavage
A42U C49G | 0.312
A42U C49A | 0.53
A43C C84U | 0.135
A43U C49G | 0.516
A43U C49U | 0.554
A43U C49A | 0.755
A42G A70U | 0.365
A43U C66G | 0.47
A43U G59A | 0.633
A42U A43C | 0.208
A42U A43U | 0.604
A43C U69G | 0.68
A42G U69C | 0.462
A42U A83U | 0.142
A42U A83G | 0.177
A42U A83C | 0.119
A42U A71G | 0.431
A42U A71C | 0.342
A42G C63A | 0.359
A42G C63U | 0.633
A42G C63G | 0.504
A43G A56G | 0.26
A42G C64U | 0.45
A42G C58U | 0.617

Variant | self-cleavage
A42G C58G | 0.554
A43G A87U | 0.554
A43U A78C | 0.0817
A43U G82C | 0
A43U G82U | 0.0923
A42G U47G | 0.7
A42G C86G | 0.597
A42G C86U | 0.697
A42G C86A | 0.697
A43C G76C | 0.604
A43C G76U | 0.95
A42G G67C | 0.365
A42U C63U | 0.506
A42U C63G | 0.504
A42G G68A | 0.441
A42G G68U | 0.403
A43U G52A | 0.561
A42G U72G | 0.35
A42G U72C | 0.475
A42U G76C | 0.639
A42U G76A | 0.764
A43G C62A | 0.554
